Experimental data: patent US20100167270

What was measured:
[1] = tested on: hMPV F protein of rhMPV/NL/1/00/101S (RQSR cleavage motif)
[2] = tested on: hMPV F protein of rhMPV/NL/1/99/101S (subtype B1)
[3] = tested on: hMPV F protein of rhMPV/NL/1/00/101P (RQPR cleavage motif)

For TPCK trypsin (Sigma), the “cleavage of hMPV F (F0 to F1), Western blot” value [1] was “hMPV F containing 101S was cleaved only when the protein was exposed to trypsin”, the “cleavage of vectored hMPV F (b/h PIV3), Western blot” value [1] was “In the presence of trypsin, the vectored F proteins of both hMPV/NL/1/00/101P and hMPV/NL/1/00/101S were partially cleaved to the same extent as the F protein expressed from the wt hMPV/NL/1/00” and the “cleavage of hMPV F (F0 to F1), Western blot” value [2] was “hMPV F/101S showed no cleavage in the absence of trypsin, but in the presence of trypsin, the F1 fragment was readily detected”. The “cleavage of vectored hMPV F (b/h PIV3), Western blot” value [3] was “In the presence of trypsin, the vectored F proteins of both hMPV/NL/1/00/101P and hMPV/NL/1/00/101S were partially cleaved to the same extent as the F protein expressed from the wt hMPV/NL/1/00”.
